The data set deals with IL-1-L0-Fok1 zinc finger nuclease (IL-1-Fok1) (synthetic construct). Briefly: cell_activity. To be noted: inter-chromosomal HR with donor pDAB1600 in tobacco NT1-240; NT1-260 0.1; BY2-380 0.2; donor only 0.

The sequence “ATTATCCGAGTTTAATAGAACTCGGATAAT (double strand) [IL-1-L0-Fok1 recognition site]” returned an activity (events per selection plate) of 1.2.

For the origin of these results see patent publication US20100257638.
